In patent publication US20260167703A1:

How the values were obtained:
[1] = target: DENV-2 VLP (Dengue virus serotype 2, strain Thailand/16681/84); assay: Luminex, VLP-coupled beads
[2] = target: DENV-2 VLP (Dengue virus serotype 2, strain Thailand/16681/84)
[3] = target: DENV-2 E protein Domain III (Dengue virus serotype 2, strain Thailand/16681/1984); assay: BLI, mAb on AR2G biosensor, 20 ug/mL Domain III, 1200 sec
[4] = target: DENV-4 E protein Domain III (Dengue virus serotype 4, strain Indonesia/1036/1976); assay: as above

Binder	EC50 [1] [µg/mL]	Response (nm) [2] [nm]	koff [2] [s⁻¹]	Response (nm) [3] [nm]	Response (nm) [4] [nm]
DENV2-3H11 (antibody, V domains shown) VH: QSVEESGGRLVTPGTPLTLTCTVSGFSLINYDMSWIRQAPGKGLEWIGMVSGGGHTNYASWANGRFTISKTSSTTMDLKITSPTTEDTASYFCGRWDIWGPGTLVTVSL VL: AVVVTQTASPVSAAVGGTVTISCQSSQSVYDDNWLAWYQQKPGQPPKQLIYRASRLASGVPSRFSGTGSGTQFTLTISGVQCDDAATYYCLGGYVDDGDTTFGGGTEVVVK	0.0354	2.02	< 2e-05	-0.00452	
DENV4-9G8 (antibody, V domains shown) VH: QSLEESGGGLVKPGASLTLTCTASGFSFSYRYWMSWVRQAPGKRPEWIACIDTGNGDTYYASRAKGRFTIMKTSSTTVTLQMTSLTVADTATYFCARSDVTLTGYGYGNLWGPGTLVTVSS VL: DSVMTQTPASVSEPVGGTVTINCQASHNIYNSLAWYQQKPGQPPKLLIYRASTLESGVPSRVKGSGYGTEYTLTISDLECADAATYYCQQYYGGDDDGFGFGGGTEVVVK					0.264
DENV4-7D5 (antibody, V domains shown) VH: QSVEESGGRLVTPGTPLTLTCTVSGIDLSSWEMGWVRQAPGKGLEWIGIIFPSGTIYYANWAKGRFAISKASTTVDLKITSPTTEDTATYFCGRHGGSLYLNIWGPGTLVTVSL VL: AQVLTQTPSPVSAAVGGTVTINCQASQSVYVNRNLAWYQQKPGQPPKVLIYEASKLASGVPSRFKGSGSGTQFTLTISGVQCDDAATYYCQGEFGCSSADCIAFGGGTEVVVK					-0.007
DENV4-8C7 (antibody, V domains shown) VH: QSVEESGGRLVTPGTPLTLTCTVSGIDLSSYEMGWVRQAPGKGLEWIGIIFPSGTIYYANWAKGRFTISKTSTTVDLKITSPTTEDTATYFCGRHGGSLYLNIWGPGTLVTVSL VL: AQVLTQTPSPVSAAVGGTVTINCQASQSVYVNRNLAWYQQKPGQPPKVLIYEASKLASGVPSRFKGSGSGTQFTLTISGVQCDDAATYYCQGEFGCSSADCIAFGGGTEVVVK					-0.014
DENV2-8D8 (antibody, V domains shown) VH: QSLEESGGRLVKPDETLTLTCTVSGIDLSSTIITWVRQAPGKGLEYIGIIGSSGSIISANWAKGRFTISRTSTTVDLKMTSLTTEDTATYFCARIAWSTGRNDIWGPGTLVTVSS VL: AAVLTQTPPSVSAAVGGTVTISCQSSQSVYNNNALSWYQQKPGQPPKLLIYLASNLASGVPSRFSGSGSGTQFTLTISGVQCDDAATYHCLGVDDDDVDNTFGGGTEVVVK	0.011	0.756	< 2e-05	0.0246	
DENV2-5F4 (antibody, V domains shown) VH: QSVEESGGRLVKPDETLTLTCTVSGIDLSNTVISWVRQAPGKGLEYIGMITPSGSAYSATWAKGRVTISRTSTTVDLKIASPTTEDTATYFCARIAWSTGRNDIWGPGTLVTVSS VL: AAVLTQTPPSVSAAVGGTVTIKCQSSQSVYNNNALSWYQQKPGQPPKLLIYQASKLSSGVSSRFSGSGSGTHFTLTISGVQCDDAATYYCLGIYDDDVDNTFGGGTEVVVG	0.0095	1.5	< 2e-05	0.0206	
DENV4-5B11 (antibody, V domains shown) VH: QSVEESGGRLVTPGTPLTLTCTVSGFSLSDSAMSWVRQAPGKGLEWIGYIYAGSGTTYYASWAKGRFTISKTSTTVDLKITSPTTEDTATYFCARATAYVGYGYGDDTFDPWGPGTLVTVSS VL: AYDMTQTPASVEVAVGGTVTIKCQASQSISSYLSWYQQKPGQRPKLLIYRASTLASGVSSRFKGSGSGTEFTLTISGVQCDDAATYYCQQGYSNSDVDNVFGGGTEVVVK					0.02
DENV4-7G4 (antibody, V domains shown) VH: QSVEESGGRLVTPGTPLTLTCTVSGFSLSSCAMTWVRQAPGKGLEWIGYIYVDSDTTYYASWAKGRFTISTTSTTVDLRITSPTTEDTATYFCARTTAYVGGGYGDDTFDPWGPGTLVTVSS VL: DVVMTQTPASVEAAVGGTVTINCQASQNINSYLSWYQQKPGQRPKLLIYRAFTLASGVSSRFKGSGSGTQFTLTISGVECADAATYYCQQGYSFSGVDNVFGGGTEVVVK					-0.001
DENV4-7F2 (antibody, V domains shown) VH: QSVEESGGRLVTPGTPLTLTCTVSGIDLSYYAMGWVRQAPGEGLECIGFIDTGDSAYYASWAKGRFTISKTSSTTVDLKITSPTPEDTATYFCGRSLSSYYDWDAFDPWGPGTLVTVSS VL: AYDMTQTPASVEVAVGGTVTINCQASQTIGNLLAWYQQKPGQRPKLLIYRASTLASGVPSRFKGSGSGTQFTLTISGVECADAATYYCQQGASANDIDNSFGGGTAVVVK					-0.005
DENV4-10A11 (antibody, V domains shown) VH: QSVEESGGRLVTPGTPLTLTCTVSGINLSFYAMGWVRQAPGKGLECVGFIDTDNSAYYASWAKGRFTISKTSTTVDLKITSPTTEDTATYFCARSLSSFYDWDAFDPWGPGTLVTVSS VL: AYDMTQTPASVEVAVGGTVTIKCLASQSISNLLAWYQQKPGQRPKLLIYRASTLASGVPSRFKGSGSGTQFTLTISGVECADAATYYCQQGASNSDIDNAFGGGTEVVVK					0.012
